Results as given in patent publication US20100233191.

Key:
[1] = system: wild-type proaerolysin from Aeromonas hydrophila
[2] = system: MPP5 (histidine-tagged modified proaerolysin with a PSA cleavage site)
[3] = system: MPP1 (proaerolysin with the furin site replaced by the PSA substrate HSSKLQ)

MMP-7, sequence (P09237 95-267): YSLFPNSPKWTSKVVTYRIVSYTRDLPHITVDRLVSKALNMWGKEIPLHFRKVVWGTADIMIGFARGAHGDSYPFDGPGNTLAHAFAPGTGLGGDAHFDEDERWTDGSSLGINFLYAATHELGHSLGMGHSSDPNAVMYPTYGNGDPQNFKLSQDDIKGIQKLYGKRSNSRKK

## hK1 (activated by thermolysin)
[1]
  Amount Required for 50% Cleavage of Native Proaerolysin: 2.63 µg
  Specific Activity Towards Proaerolysin: 15.3 fmol/µg/min
[2]
  Amount Required for 50% Cleavage of MPP5: Inactive
  Specific Activity Towards MPP5: 0

## Chymotrypsin
[1]
  Amount Required for 50% Cleavage of Native Proaerolysin: 3 µg
  Specific Activity Towards Proaerolysin: 1550 nM/µg/min
[2]
  Amount Required for 50% Cleavage of MPP5: 31 µg
  Specific Activity Towards MPP5: 150 nM/µg/min

## Cathepsin B (cysteine protease)
[1]
  Amount Required for 50% Cleavage of Native Proaerolysin: 51.6 units
  Specific Activity Towards Proaerolysin: 3.9 fmol/µg/min
[2]
  Amount Required for 50% Cleavage of MPP5: 170 units
  Specific Activity Towards MPP5: 1.2 fmol/µg/min

## Prostate-specific antigen (PSA), also referred as hK3
[1]
  Amount Required for 50% Cleavage of Native Proaerolysin: 49.7 µg
  Specific Activity Towards Proaerolysin: 0.0156 nM/µg/min
[2]
  Amount Required for 50% Cleavage of MPP5: 12.2 µg
  Specific Activity Towards MPP5: 0.0635 nM/µg/min
[3]
  hemolysis (ratio to Triton control), MPP1 10^-8 M pre-incubated with PSA in buffer: about 45% hemolysis
  hemolysis, MPP1 in human plasma or plasma spiked with PSA (10,000 ng/ml): no appreciable hemolysis (i.e. <1% of Triton control

## Thrombin
[1]
  Amount Required for 50% Cleavage of Native Proaerolysin: > 12 µg
  Specific Activity Towards Proaerolysin: < 7.8e-07 nM/µg/min
[2]
  Amount Required for 50% Cleavage of MPP5: > 12 µg
  Specific Activity Towards MPP5: < 7.8e-07 nM/µg/min

## MMP-7
[1]
  Amount Required for 50% Cleavage of Native Proaerolysin: Inactive
  Specific Activity Towards Proaerolysin: 0
[2]
  Amount Required for 50% Cleavage of MPP5: Inactive
  Specific Activity Towards MPP5: 0

## Furin
[1]
  Amount Required for 50% Cleavage of Native Proaerolysin: 0.0012 µg
  Specific Activity Towards Proaerolysin: 9.69 nM/µg/min
[2]
  Amount Required for 50% Cleavage of MPP5: > 0.0032 µg
  Specific Activity Towards MPP5: 0.24 nM/µg/min

## uPA
[1]
  Amount Required for 50% Cleavage of Native Proaerolysin: 7.79 µg
  Specific Activity Towards Proaerolysin: 25.8 fmol/µg/min
[2]
  Amount Required for 50% Cleavage of MPP5: 173 µg
  Specific Activity Towards MPP5: 1.1 fmol/µg/min

## hK2 (human glandular kallikrein 2)
[1]
  Specific Activity Towards Proaerolysin: 1610 fmol/µg/min
[2]
  Amount Required for 50% Cleavage of MPP5: Inactive
  Specific Activity Towards MPP5: 0

## Trypsin (Type I trypsin)
[1]
  Amount Required for 50% Cleavage of Native Proaerolysin: 0.0095 µg
  Specific Activity Towards Proaerolysin: 489000 nM/µg/min
[2]
  Amount Required for 50% Cleavage of MPP5: 0.813 µg
  Specific Activity Towards MPP5: 5700 nM/µg/min
